The target of the experiment is FGF receptor/BKL complex (human) (UniProt Q86Z14). The experiment in a line: cell-based or functional assay.
Sequence of FGF receptor/BKL complex (human) (Q86Z14 whole entry, one chain of several): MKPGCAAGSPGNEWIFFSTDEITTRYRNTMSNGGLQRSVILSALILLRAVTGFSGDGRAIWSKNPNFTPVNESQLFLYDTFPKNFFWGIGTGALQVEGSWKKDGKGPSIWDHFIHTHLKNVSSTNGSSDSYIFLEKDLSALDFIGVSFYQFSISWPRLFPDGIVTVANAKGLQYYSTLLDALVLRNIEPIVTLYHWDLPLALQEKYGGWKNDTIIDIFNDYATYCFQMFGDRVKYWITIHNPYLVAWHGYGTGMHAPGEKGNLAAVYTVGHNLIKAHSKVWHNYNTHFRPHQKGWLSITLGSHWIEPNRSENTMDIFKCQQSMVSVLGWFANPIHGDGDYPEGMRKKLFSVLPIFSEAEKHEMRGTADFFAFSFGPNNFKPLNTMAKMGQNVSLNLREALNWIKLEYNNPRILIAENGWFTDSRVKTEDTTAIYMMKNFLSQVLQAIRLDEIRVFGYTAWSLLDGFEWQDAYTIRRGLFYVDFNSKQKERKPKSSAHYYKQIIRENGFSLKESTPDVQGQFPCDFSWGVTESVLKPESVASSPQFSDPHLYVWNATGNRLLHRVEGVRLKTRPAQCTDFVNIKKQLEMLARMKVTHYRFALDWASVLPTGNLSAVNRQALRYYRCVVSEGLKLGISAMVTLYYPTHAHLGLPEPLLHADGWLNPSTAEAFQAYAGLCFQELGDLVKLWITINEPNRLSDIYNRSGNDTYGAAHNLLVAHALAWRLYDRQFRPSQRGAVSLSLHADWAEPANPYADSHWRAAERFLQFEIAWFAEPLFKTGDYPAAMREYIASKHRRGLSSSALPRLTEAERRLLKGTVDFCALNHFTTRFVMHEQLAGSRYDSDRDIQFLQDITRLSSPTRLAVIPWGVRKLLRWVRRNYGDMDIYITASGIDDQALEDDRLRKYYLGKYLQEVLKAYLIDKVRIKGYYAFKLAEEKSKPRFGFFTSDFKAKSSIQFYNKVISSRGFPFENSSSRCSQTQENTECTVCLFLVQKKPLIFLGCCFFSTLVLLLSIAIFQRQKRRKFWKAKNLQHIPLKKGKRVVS

“Met-FGF21 (Comparator) SEQ ID NO: 36 (from UniProt Q9NSA1 29-209) (ligand)”: the FGF1 receptor potency [EC50] nM 0.1% HSA came to 0.44 nM and the FGF21 receptor potency [EC50] nM 0% HSA was 0.52 nM.
The substance “S{Beta-180}-[2-[2-[[2-[2-[2-[[2-[2-[2-[[(4S)-4-carboxy-4-(17-carboxyheptadecanoyl-amino)butanoyl]amino]ethoxy]ethoxy]acetyl]amino]ethoxy]ethoxy]acetyl]amino]-ethylamino]-2-oxoethyl]-Ala[Gln121,Leu168,Cys180]FGF21(1-181) (from UniProt Q9NSA1 28-209) (ligand)” returned an FGF1 receptor potency [EC50] nM 0.1% HSA of 10.1 nM and an FGF21 receptor potency [EC50] nM 0% HSA of 2.5 nM.
